Biological target: T1, PKC-ε (endogenous, human cell extracts) (human, UniProt Q02156 1-737)
T1 construct: Two bands on the blot, said to be alternate splicing variants; also called PKC-epsilon; PKC-ε Band 1
T1 sequence (looked up): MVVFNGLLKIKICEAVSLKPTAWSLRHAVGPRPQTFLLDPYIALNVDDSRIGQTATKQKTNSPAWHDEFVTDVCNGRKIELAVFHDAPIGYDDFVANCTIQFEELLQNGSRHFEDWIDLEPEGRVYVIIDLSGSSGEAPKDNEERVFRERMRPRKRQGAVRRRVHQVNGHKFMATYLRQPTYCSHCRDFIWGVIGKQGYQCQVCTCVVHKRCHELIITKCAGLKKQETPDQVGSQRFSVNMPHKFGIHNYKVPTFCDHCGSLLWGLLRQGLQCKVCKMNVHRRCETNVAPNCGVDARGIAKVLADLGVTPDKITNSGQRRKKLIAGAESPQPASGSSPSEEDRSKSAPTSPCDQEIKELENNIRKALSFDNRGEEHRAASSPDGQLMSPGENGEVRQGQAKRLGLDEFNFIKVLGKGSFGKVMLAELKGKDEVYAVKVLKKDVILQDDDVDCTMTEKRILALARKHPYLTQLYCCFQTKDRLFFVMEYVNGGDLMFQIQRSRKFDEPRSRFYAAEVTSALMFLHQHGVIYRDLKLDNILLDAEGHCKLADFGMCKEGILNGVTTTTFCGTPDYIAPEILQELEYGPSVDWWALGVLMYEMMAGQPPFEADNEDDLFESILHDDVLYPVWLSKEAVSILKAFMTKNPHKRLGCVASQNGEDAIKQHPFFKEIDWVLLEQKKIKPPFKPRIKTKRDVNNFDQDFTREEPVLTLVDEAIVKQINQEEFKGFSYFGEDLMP
Assay: Western-blot competition on cell extracts against the anti-PKC-ε primary antibody; band densitometry

B1: PRE 12 (peptide)
peptide: Ac-KDAQNLI-NH2
notes: Synthetic peptide; also called peptide PRE 12; Ac-KDAQNLI-NH2
- binding result: no binding (tested: 20X the primary antibody concentration)

— US20100041597A1 (published 2010)
